From the supplement of paper PMC5998384 come the findings set out here.

For data set [1], the system named is HeLa Kyoto. Briefly: solubility in G1/S (NP-40 vs SDS abundance) (log2 ratio); higher = more soluble. The settings on record: cell cycle stage: G1/S.
The test system of data set [2] is HeLa Kyoto. The data set is described as follows: solubility change mitosis vs G1/S (difference of NP-40 vs SDS log2 ratios) (log2 ratio difference); higher = more soluble in mitosis.
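Throughout, for solubility change mitosis vs G1/S (difference of NP-40 vs SDS log2 ratios): synchronized HeLa Kyoto cells (double thymidine block for G1/S, nocodazole release for mitosis), protein amounts in NP-40 versus SDS lysates quantified by mass spectrometry, three biological replicates.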
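Throughout, for solubility in G1/S (NP-40 vs SDS abundance): HeLa Kyoto cells arrested at G1/S by double thymidine block, proteins quantified by TMT10plex mass spectrometry in mild NP-40 versus SDS extracts, three biological replicates.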

Take “MAGNKGRGRAAYTFNIEAVGFSKGEKLPDVVLKPPPLFPDTDYKPVPLKTGEGEEYMLALKQELRETMKRMPYFIETPEERQDIERYSKRYMKVYKEEWIPDWRRLPREMMPRNKCKKAGPKPKKAKDAGKGTPLTNTEDVLKKMEELEKRGDGEKSDEENEEKEGSKEKSKEGDDDDDDDAAEQEEYDEEEQEEENDYINSYFEDGDDFGADSDDNMDEATY [POLR3G]”: the “solubility in G1/S (log2)” value in data set [1] was 0.214. Also, in data set [2], the “solubility change mitosis (log2)” value was -0.0224.
On to “MAGPAPPVADELPGPAARRLYSRMEASCLELALEGERLCKAGDFKTGVAFFEAAVQVGTEDLKTLSAIYSQLGNAYFYLKEHGRALEYHKHDLLLARTIGDRMGEAKASGNLGNTLKVLGRFDEAAVCCQRHLSIAQEQGDKVGEARALYNIGNVYHAKGKQLSWNAANATQDPGHLPPDVRETLCKASEFYERNLSLVKELGDRAAQGRAYGNLGNTHYLLGNFTEATTFHKERLAIAKEFGDKAAERRAYSNLGNAHVFLGRFDVAAEYYKKTLQLSRQLRDQAVEAQACYSLGNTYTLLQDYERAAEYHLRHLLIAQELADRVGEGRACWSLGNAYVSMGRPAQALTFAKKHLQISQEIGDRHGELTARMNVAQLQLVLGRLTSPAASEKPDLAGYEAQGARPKRTQRLSAETWDLLRLPLEREQNGDSHHSGDWRGPSRDSLPLPVRSRKYQEGPDAERRPREGSHSPLDSADVRVHVPRTSIPRAPSSDEECFFDLLTKFQSSRMDDQRCPLDDGQAGAAEATAAPTLEDRIAQPSMTASPQTEEFFDLIASSQSRRLDDQRASVGSLPGLRITHSNAGHLRGHGEPQEPGDDFFNMLIKYQSSRIDDQRCPPPDVLPRGPTMPDEDFFSLIQRVQAKRMDEQRVDLAGGPEQGAGGPPEPQQQCQPGAS [GPSM1]”, for which the “solubility in G1/S (log2)” value in data set [1] is 0.244. For the same sequence, the “solubility change mitosis (log2)” value in data set [2] is -0.0781.
The corresponding values for “MAGPGSTGGQIGAAALAGGARSKVAPSVDFDHSCSDSVEYLTLNFGPFETVHRWRRLPPCDEFVGARRSKHTVVAYKDAIYVFGGDNGKTMLNDLLRFDVKDCSWCRAFTTGTPPAPRYHHSAVVYGSSMFVFGGYTGDIYSNSNLKNKNDLFEYKFATGQWTEWKIEGRLPVARSAHGATVYSDKLWIFAGYDGNARLNDMWTIGLQDRELTCWEEVAQSGEIPPSCCNFPVAVCRDKMFVFSGQSGAKITNNLFQFEFKDKTWTRIPTEHLLRGSPPPPQRRYGHTMVAFDRHLYVFGGAADNTLPNELHCYDVDFQTWEVVQPSSDSEVGGAEVPERACASEEVPTLTYEERVGFKKSRDVFGLDFGTTSAKQPTQPASELPSGRLFHAAAVISDAMYIFGGTVDNNIRSGEMYRFQFSCYPKCTLHEDYGRLWESRQFCDVEFVLGEKEECVQGHVAIVTARSRWLRRKITQARERLAQKLEQEAAPVPREAPGVAAGGARPPLLHVAIREAEARPFEVLMQFLYTDKIKYPRKGHVEDVLLIMDVYKLALSFQLCRLEQLCRQYIEASVDLQNVLVVCESAARLQLSQLKEHCLNFVVKESHFNQVIMMKEFERLSSPLIVEIVRRKQQPPPRTPLDQPVDIGTSLIQDMKAYLEGAGAEFCDITLLLDGHPRPAHKAILAARSSYFEAMFRSFMPEDGQVNISIGEMVPSRQAFESMLRYIYYGEVNMPPEDSLYLFAAPYYYGFYNNRLQAYCKQNLEMNVTVQNVLQILEAADKTQALDMKRHCLHIIVHQFTKVSKLPTLRSLSQQLLLDIIDSLASHISDKQCAELGADI [LZTR1]” are -0.115 and -0.0816.
In the case of “MAGQEDPVQREIHQDWANREYIEIITSSIKKIADFLNSFDMSCRSRLATLNEKLTALERRIEYIEARVTKGETLT [BRK1]”, the “solubility in G1/S (log2)” value in data set [1] is -0.551. Further, in data set [2], the “solubility change mitosis (log2)” value is 0.228.
For “MAKAGDKSSSSGKKSLKRKAAAEELQEAAGAGDGATENGVQPPKAAAFPPGFSISEIKNKQRRHLMFTRWKQQQRKEKLAAKKKLKKEREALGDKAPPKPVPKTIDNQRVYDETTVDPNDEEVAYDEATDEFASYFNKQTSPKILITTSDRPHGRTVRLCEQLSTVIPNSHVYYRRGLALKKIIPQCIARDFTDLIVINEDRKTPNGLILSHLPNGPTAHFKMSSVRLRKEIKRRGKDPTEHIPEIILNNFTTRLGHSIGRMFASLFPHNPQFIGRQVATFHNQRDYIFFRFHRYIFRSEKKVGIQELGPRFTLKLRSLQKGTFDSKYGEYEWVHKPREMDTSRRKFHL [RPF1]”, the “solubility in G1/S (log2)” value in data set [1] is -1.77. The “solubility change mitosis (log2)” value in data set [2] is 0.774.
For “MAKDAGLIEANGELKVFIDQNLSPGKGVVSLVAVHPSTVNPLGKQLLPKTFGQSNVNIAQQVVIGTPQRPAASNTLVVGSPHTPSTHFASQNQPSDSSPWSAGKRNRKGEKNGKGLRHFSMKVCEKVQRKGTTSYNEVADELVAEFSAADNHILPNESAYDQKNIRRRVYDALNVLMAMNIISKEKKEIKWIGLPTNSAQECQNLEVERQRRLERIKQKQSQLQELILQQIAFKNLVQRNRHAEQQASRPPPPNSVIHLPFIIVNTSKKTVIDCSISNDKFEYLFNFDNTFEIHDDIEVLKRMGMACGLESGSCSAEDLKMARSLVPKALEPYVTEMAQGTVGGVFITTAGSTSNGTRFSASDLTNGADGMLATSSNGSQYSGSRVETPVSYVGEDDEEDDDFNENDEDD [TFDP1]” the same measures were 0.136 and -0.176.
“MAKSPENSTLEEILGQYQRSLREHASRSIHQLTCALKEGDVTIGEDAPNLSFSTSVGNEDARTAWPELQQSHAVNQLKDLLRQQADKESEVSPSRRRKMSPLRSLEHEETNMPTMHDLVHTINDQSQYIHHLEAEVKFCKEELSGMKNKIQVVVLENEGLQQQLKSQRQEETLREQTLLDASGNMHNSWITTGEDSGVGETSKRPFSHDNADFGKAASAGEQLELEKLKLTYEEKCEIEESQLKFLRNDLAEYQRTCEDLKEQLKHKEFLLAANTCNRVGGLCLKCAQHEAVLSQTHTNVHMQTIERLVKERDDLMSALVSVRSSLADTQQREASAYEQVKQVLQISEEANFEKTKALIQCDQLRKELERQAERLEKELASQQEKRAIEKDMMKKEITKEREYMGSKMLILSQNIAQLEAQVEKVTKEKISAINQLEEIQSQLASREMDVTKVCGEMRYQLNKTNMEKDEAEKEHREFRAKTNRDLEIKDQEIEKLRIELDESKQHLEQEQQKAALAREECLRLTELLGESEHQLHLTRQEKDSIQQSFSKEAKAQALQAQQREQELTQKIQQMEAQHDKTENEQYLLLTSQNTFLTKLKEECCTLAKKLEQISQKTRSEIAQLSQEKRYTYDKLGKLQRRNEELEEQCVQHGRVHETMKQRLRQLDKHSQATAQQLVQLLSKQNQLLLERQSLSEEVDRLRTQLPSMPQSDC [SDCCAG8]”: the “solubility in G1/S (log2)” value in data set [1] was 0.52. Moreover, the “solubility change mitosis (log2)” value in data set [2] amounted to 0.0872.
“MALLRKINQVLLFLLIVTLCVILYKKVHKGTVPKNDADDESETPEELEEEIPVVICAAAGRMGATMAAINSIYSNTDANILFYVVGLRNTLTRIRKWIEHSKLREINFKIVEFNPMVLKGKIRPDSSRPELLQPLNFVRFYLPLLIHQHEKVIYLDDDVIVQGDIQELYDTTLALGHAAAFSDDCDLPSAQDINRLVGLQNTYMGYLDYRKKAIKDLGISPSTCSFNPGVIVANMTEWKHQRITKQLEKWMQKNVEENLYSSSLGGGVATSPMLIVFHGKYSTINPLWHIRHLGWNPDARYSEHFLQEAKLLHWNGRHKPWDFPSVHNDLWESWFVPDPAGIFKLNHHS [GLT8D2]”: the “solubility in G1/S (log2)” value in data set [1] was 0.233. In data set [2], the “solubility change mitosis (log2)” value is -0.357.
For “MALRLLRRAARGAAAAALLRLKASLAADIPRLGYSSSSHHKYIPRRAVLYVPGNDEKKIKKIPSLNVDCAVLDCEDGVAANKKNEARLRIVKTLEDIDLGPTEKCVRVNSVSSGLAEEDLETLLQSRVLPSSLMLPKVESPEEIQWFADKFSFHLKGRKLEQPMNLIPFVETAMGLLNFKAVCEETLKVGPQVGLFLDAVVFGGEDFRASIGATSSKETLDILYARQKIVVIAKAFGLQAIDLVYIDFRDGAGLLRQSREGAAMGFTGKQVIHPNQIAVVQEQFSPSPEKIKWAEELIAAFKEHQQLGKGAFTFQGSMIDMPLLKQAQNTVTLATSIKEK [CLYBL]”, the “solubility in G1/S (log2)” value in data set [1] was -0.168. The “solubility change mitosis (log2)” value in data set [2] amounted to 0.0246.
The corresponding values for “MAMVVSSWRDPQDDVAGGNPGGPNPAAQAARGGGGGAGEQQQQAGSGAPHTPQTPGQPGAPATPGTAGDKGQGPPGSGQSQQHIECVVCGDKSSGKHYGQFTCEGCKSFFKRSVRRNLTYTCRANRNCPIDQHHRNQCQYCRLKKCLKVGMRREAVQRGRMPPTQPNPGQYALTNGDPLNGHCYLSGYISLLLRAEPYPTSRYGSQCMQPNNIMGIENICELAARLLFSAVEWARNIPFFPDLQITDQVSLLRLTWSELFVLNAAQCSMPLHVAPLLAAAGLHASPMSADRVVAFMDHIRIFQEQVEKLKALHVDSAEYSCLKAIVLFTSDACGLSDAAHIESLQEKSQCALEEYVRSQYPNQPSRFGKLLLRLPSLRTVSSSVIEQLFFVRLVGKTPIETLIRDMLLSGSSFNWPYMSIQCS [NR2F1]” are -0.152 and 0.0314.
Turning to “MAREPRKNAALDAQSAEDQTGLLTVKVEKEEASALTAEVRAPCSPARGPERSRQRFRGFRYPEAAGPREALSRLRELCGQWLQPEMHSKEQILELLVLEQFLTILPGNLQSWVREQHPESGEEVVVLLEYLERQLDEPAPQVPVGDQGQELLCCKMALLTQTQGSQSSQCQPMKALFKHESLGSQPLHDRVLQVPGLAQGGCCREDAMVASRLTPGSQGLLKMEDVALTLTPGWTQLDSSQVNLYRDEKQENHSSLVSLGGEIQTKSRDLPPVKKLPEKEHGKICHLREDIAQIPTHAEAGEQEGRLQRKQKNAIGSRRHYCHECGKSFAQSSGLTKHRRIHTGEKPYECEDCGKTFIGSSALVIHQRVHTGEKPYECEECGKVFSHSSNLIKHQRTHTGEKPYECDDCGKTFSQSCSLLEHHKIHTGEKPYQCNMCGKAFRRNSHLLRHQRIHGDKNVQNPEHGESWESQGRTESQWENTEAPVSYKCNECERSFTRNRSLIEHQKIHTGEKPYQCDTCGKGFTRTSYLVQHQRSHVGKKTLSQ [ZKSCAN4]”, the “solubility in G1/S (log2)” value in data set [1] was -0.299. Also, the “solubility change mitosis (log2)” value in data set [2] is 0.361.
With “MARISFSYLCPASWYFTVPTVSPFLRQRVAFLGLFFISCLLLLMLIIDFRHWSASLPRDRQYERYLARVGELEATDTEDPNLNYGLVVDCGSSGSRIFVYFWPRHNGNPHDLLDIKQMRDRNSQPVVKKIKPGISAMADTPEHASDYLRPLLSFAAAHVPVKKHKETPLYILCTAGMRLLPERKQLAILADLVKDLPLEFDFLFSQSQAEVISGKQEGVYAWIGINFVLGRFDHEDESDAEATQELAAGRRRTVGILDMGGASLQIAYEVPTSTSVLPAKQEEAAKILLAEFNLGCDVQHTEHVYRVYVTTFLGFGGNFARQRYEDLVLNETLNKNRLLGQKTGLSPDNPFLDPCLPVGLTDVVERNSQVLHVRGRGDWVSCGAMLSPLLARSNTSQASLNGIYQSPIDFNNSEFYGFSEFFYCTEDVLRIGGRYHGPTFAKAAQDYCGMAWSVLTQRFKNGLFSSHADEHRLKYQCFKSAWMYQVLHEGFHFPYDYPNLRTAQLVYDREVQWTLGAILYKTRFLPLRDLRQEGVRQAHGSWFRLSFVYNHYLFFACILVVLLAIFLYLLRLRRIHHRQTRASAPLDLLWLEEVVPMMGVQVGP [ENTPD7]”, the “solubility in G1/S (log2)” value in data set [1] is -0.358. The “solubility change mitosis (log2)” value in data set [2] turned out to be 0.145.
